Values of other authors as cited in publication PMC5755571.

Molecular target: His64 (UniProt position 64, ILNNGHAFNVE)

Carbonic anhydrase II (hCAII) (Homo sapiens)
pKa: around 7
